In publication PMC6277429:

Key:
Assay in all cases: EMSA
Settings in all cases: 10 mM Tris pH 7.5, 100 mM KCl (Fig. 3 legend; not in Methods), 1 mM DTT, 2.5% glycerol, 20 mM MgCl2, 500 ng poly(dI-dC), 0.05% NP-40; 30 nM DNA; 10 min room …
[1] = molecular target: T1, MBP-NnaR;His-GlnR (Mycobacterium smegmatis mc2 155;Mycobacterium smegmatis mc2 155) (UniProt A0QPK7+A0R4C4)
T1 sequence 1: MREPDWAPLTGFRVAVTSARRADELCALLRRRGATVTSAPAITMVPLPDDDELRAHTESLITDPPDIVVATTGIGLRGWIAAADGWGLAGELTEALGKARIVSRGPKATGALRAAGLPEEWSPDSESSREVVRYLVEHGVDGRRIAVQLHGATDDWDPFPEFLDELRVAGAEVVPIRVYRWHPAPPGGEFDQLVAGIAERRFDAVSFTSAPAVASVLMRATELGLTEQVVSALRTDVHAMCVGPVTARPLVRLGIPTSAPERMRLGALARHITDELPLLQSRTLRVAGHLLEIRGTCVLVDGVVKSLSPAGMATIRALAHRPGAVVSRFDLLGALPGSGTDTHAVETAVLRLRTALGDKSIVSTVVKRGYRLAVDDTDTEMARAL
T1 sequence 2: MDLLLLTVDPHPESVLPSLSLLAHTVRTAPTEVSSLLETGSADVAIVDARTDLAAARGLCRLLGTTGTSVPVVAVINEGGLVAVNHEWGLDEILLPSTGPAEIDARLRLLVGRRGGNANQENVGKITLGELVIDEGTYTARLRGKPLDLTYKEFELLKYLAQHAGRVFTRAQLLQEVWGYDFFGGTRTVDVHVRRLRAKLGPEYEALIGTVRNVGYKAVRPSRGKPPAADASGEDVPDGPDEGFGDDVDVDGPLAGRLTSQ

[2] = molecular target: T2, MBP-NnaR (Mycobacterium smegmatis mc2 155) (UniProt A0QPK7)
T2 sequence: T1 sequence 1

[3] = molecular target: T3, His-GlnR (Mycobacterium smegmatis mc2 155) (UniProt A0R4C4)
T3 sequence: T1 sequence 2

Sequence	binding [1]	binding [2]	binding [3]
ATCTGCATCATCTCGCGACTTTGGTCAGCTGTCGCCCTGGCGCGCCGAGGCACGGCAGGTTTCGCACGCCCAGGCATCTCACAGCCGACGCTGAGCTGATGTGCGCAGATGGCAACACCGATGCATAGGTCAAGTCGCCGAACCGCAATCTGGGCGCGACACGGTCTAGGGAACTGTCCATCGGGTCCATCGGAAGGTTGCACCCAATG (double strand) [msmeg_5360 promoter]	binds	no binding	no binding
CATAGGGCGAGGCTAAGAACCCGATATTGCCGCGATGTCGCGCTGTGTGAAGCCCCCATCACGGTGTGCTCACGTCTTCGGCAACGCACATGTGAGGTCCCCGACCGGTGAGCTCTCCGGACCACAGTCAGGCCACAACCGCC (double strand) [msmeg_0427 promoter]	–	binds	–
CGTGTGGCCCTTTCGTTCGATCCCGAGCACAGAGATTAACTGTACTGACCACGCAAGGCGAGACGTCGGCACTCGTGACGTCCTCACACGGTTTTCACAACGCACTCACAAGACATGTGAGCAGCACGTAGCGGACCCGGTACGCCTGGGCAATGGTGCGGCAACGGGGTTCTCCGACGCTGAACGCATG (double strand) [msmeg_5765 promoter]	–	binds	binds more weakly
GACCCCTGGTGACCGCGTAACGGCTTTCTCACAGGTGCCCGCCGATCCAGGTGAGCGGAATTTCACGGCCGGGTCATCGCGCGCAGTGTCGGGGCAATAATCGCTTTCTAGCGTGCTCGCATG (double strand) [msmeg_0433 promoter]	–	binds	binds more weakly
GCAGCTTGGACCACCTATTTCCACGCCATGAACGACCTCGCCCGAAAATTGATGAGCGCGTTCGCCCTCGGGTTGAGGTTGCCCGCCGACTACTTCGTCGACACCATCGA (double strand) [msmeg_4008 promoter]	binds	no binding	no binding
